Measured values reported in US20100273979A1.

Tests used:
[1] = target: human serum albumin (human), P02768; assay: SPR (Biacore2000), HSA immobilised (450 RU), analyte 4-400 nM
[2] = target: human serum albumin (human), P02768; assay: SPR (Biacore2000), HSA immobilised on CM-5, analyte injected at 25 nM; qualitative
[3] = target: mouse serum albumin (mouse), P07724; assay: SPR (Biacore2000), MSA immobilised on CM-5, analyte injected at 25 nM; qualitative
Sequence of mouse serum albumin (mouse), P07724 (P07724 25-608 limits assumed): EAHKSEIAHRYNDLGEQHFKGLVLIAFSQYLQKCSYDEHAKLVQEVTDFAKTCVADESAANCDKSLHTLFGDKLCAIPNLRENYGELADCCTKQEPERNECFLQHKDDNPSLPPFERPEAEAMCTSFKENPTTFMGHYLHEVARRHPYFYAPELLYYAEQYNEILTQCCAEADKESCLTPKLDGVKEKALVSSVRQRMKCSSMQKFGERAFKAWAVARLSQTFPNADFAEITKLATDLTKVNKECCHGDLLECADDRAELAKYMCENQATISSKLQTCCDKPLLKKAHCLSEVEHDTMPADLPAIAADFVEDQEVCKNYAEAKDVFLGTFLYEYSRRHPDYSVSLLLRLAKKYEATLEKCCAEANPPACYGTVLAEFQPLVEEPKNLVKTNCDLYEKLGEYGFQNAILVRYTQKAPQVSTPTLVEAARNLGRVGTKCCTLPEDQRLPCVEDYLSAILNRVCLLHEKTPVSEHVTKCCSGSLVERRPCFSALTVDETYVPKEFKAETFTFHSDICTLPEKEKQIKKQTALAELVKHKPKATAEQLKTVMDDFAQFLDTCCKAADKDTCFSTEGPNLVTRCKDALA

## LAEAKVLANRELDKYGVSDYYKNLINNAKTVEGVKALIDEILAALP (modifications not checked)
[1]
  Kd: 1.2 nM
  koff: 0.00065 s⁻¹
  kon: 550000 M⁻¹ s⁻¹
[2]
  Kd: 1.5 nM
[3]
  Kd: 4.9 nM
